Test results published in publication PMC10397247.

Columns and labels:
Assay in all cases: two-hybrid library CCmax;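 further: natural log of median RNA to DNA barcode read ratio; higher means stronger binding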
4H3133-AA = target: T1, 4H3133-AA
T1 chain: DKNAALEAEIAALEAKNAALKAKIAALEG

4H3162-AA = target: T2, 4H3162-AA; conditions: mean of both orientations
T2 chain: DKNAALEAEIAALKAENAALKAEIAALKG

4H32-AA = target: T3, 4H32-AA; conditions: mean of both orientations
T3 chain: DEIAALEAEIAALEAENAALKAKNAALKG

4H3378-AA = target: T4, 4H3378-AA; conditions: mean of both orientations
T4 chain: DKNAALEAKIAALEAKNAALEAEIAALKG

4H340-AA = target: T5, 4H340-AA; conditions: mean of both orientations
T5 chain: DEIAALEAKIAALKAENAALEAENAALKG

4H3413-AA = target: T6, 4H3413-AA; conditions: mean of both orientations
T6 chain: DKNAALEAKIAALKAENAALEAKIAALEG

4H3588-AA = target: T7, 4H3588-AA; conditions: mean of both orientations
T7 chain: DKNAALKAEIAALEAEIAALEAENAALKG

4H3606-AA = target: T8, 4H3606-AA; conditions: mean of both orientations
T8 chain: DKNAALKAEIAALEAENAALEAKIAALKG

4H3631-AA = target: T9, 4H3631-AA; conditions: mean of both orientations
T9 chain: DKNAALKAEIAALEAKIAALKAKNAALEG

4H3697-AA = target: T10, 4H3697-AA; conditions: mean of both orientations
T10 chain: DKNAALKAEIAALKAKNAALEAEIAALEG

4H3718-AA = target: T11, 4H3718-AA; conditions: mean of both orientations
T11 chain: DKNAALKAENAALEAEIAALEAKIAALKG

4H384-AA = target: T12, 4H384-AA; conditions: mean of both orientations
T12 chain: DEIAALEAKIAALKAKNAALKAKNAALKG

4H3865-AA = target: T13, 4H3865-AA; conditions: mean of both orientations
T13 chain: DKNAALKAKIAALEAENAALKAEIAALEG

4H697-AA = target: T14, 4H697-AA; conditions: mean of both orientations
T14 chain: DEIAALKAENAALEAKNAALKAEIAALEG

4H982-AA = target: T15, 4H982-AA; conditions: mean of both orientations
T15 chain: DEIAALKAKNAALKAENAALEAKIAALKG

APC5383-AA = target: T16, APC5383-AA
T16 chain: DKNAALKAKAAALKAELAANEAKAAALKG

APC6108-AA = target: T17, APC6108-AA; conditions: mean of both orientations
T17 chain: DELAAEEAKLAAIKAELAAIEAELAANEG

APC7099-AA = target: T18, APC7099-AA; conditions: mean of both orientations
T18 chain: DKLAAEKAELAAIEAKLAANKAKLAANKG

APC8191-AA = target: T19, APC8191-AA; conditions: mean of both orientations
T19 chain: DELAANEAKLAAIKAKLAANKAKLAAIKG

APC8910-AA = target: T20, APC8910-AA; conditions: mean of both orientations
T20 chain: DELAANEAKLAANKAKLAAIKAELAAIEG

APC9096-AA = target: T21, APC9096-AA; conditions: mean of both orientations
T21 chain: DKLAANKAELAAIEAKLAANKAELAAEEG

APC9319-AA = target: T22, APC9319-AA; conditions: mean of both orientations
T22 chain: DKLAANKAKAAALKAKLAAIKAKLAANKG

DKNAALEAEIAALEAKNAALKAKIAALEG [4H3133-AA]
interaction score (4H3133-AA): -0.726
interaction score (4H3162-AA): -1.24
interaction score (4H32-AA): -1.83
interaction score (4H3378-AA): -1.1
interaction score (4H340-AA): -0.539
interaction score (4H3413-AA): 1.97
interaction score (4H3588-AA): -1.47
interaction score (4H3606-AA): 1.29
interaction score (4H3631-AA): -0.654
interaction score (4H3697-AA): -0.244
interaction score (4H3718-AA): -0.85
interaction score (4H384-AA): -1.58
interaction score (4H3865-AA): 0.466
interaction score (4H697-AA): -1.6
interaction score (4H982-AA): 0.112

DKNAALKAKAAALKAELAANEAKAAALKG [APC5383-AA]
interaction score (APC5383-AA): -1.83
interaction score (APC6108-AA): -1.32
interaction score (APC7099-AA): -1.61
interaction score (APC8191-AA): -2.31
interaction score (APC8910-AA): -1.6
interaction score (APC9096-AA): -1.73
interaction score (APC9319-AA): -2.03
